# Values quoted from earlier work, collected in publication PMC4411102 (PLoS ONE, 2015).
# B1: human defensin-5: antimicrobial peptide (peptide, UniProt Q01523 20-94, looked up)
# Defensin alpha 5: ESLQERADEATTQKQSGEDNQDLAISFAGNGLSALRTSGSQARATCYCRTGRCATRESLSGVCEISGRLYRLCCR
# modifications: Defensin-5
# notes: antimicrobial peptide
# B2: secretory leucocyte protease inhibitor (SLPI): natural antimicrobial peptide (protein, UniProt P03973 26-132, looked up)
# Antileukoproteinase: SGKSFKAGVCPPKKSAQCLRYKKPECQSDWQCPGKKRCCPDTCGIKCLDPVDTPNPTRRKPGKCPVTYGQCLMLNPPNFCEMDGQCKRDLKCCMGMCGKSCVSPVKA
# Tested on: HIV
# Text: HIV-1 infection can be targeted at various stages, for example, viral entry, viral replication or assembly of viral components. HIV entry into the host cells is facilitated by binding of viral envelope glycoprotein (gp120) to host CD4 receptor [3, 4]. CD4-gp120 interaction initiates a cascade of events that stimulates gp41 to promote viral and host membrane fusion. Inhibition of gp120-CD4 interaction or virus-host cell fusion thus appears to be an attractive strategy to prevent HIV-1 infection. Towards this, significant advances have been made. […] Moreover, some of the AMPs cause adverse effects on vaginal commensals like lactobacilli which are required to maintain low pH in vaginal mucosa.
molecule,measurement,value
B1,Effect on HIV infection,exacerbate HIV infection
B2,Anti-HIV activity,reported to have anti-HIV activity
